For this experiment, the target named is fluorescein-labeled NS1 (89–237) (H3N2) (influenza A virus H3N2). Briefly: […].
fluorescein-labeled NS1 (89–237) (H3N2) (influenza A virus H3N2), sequence (P03495 89-237 limits assumed): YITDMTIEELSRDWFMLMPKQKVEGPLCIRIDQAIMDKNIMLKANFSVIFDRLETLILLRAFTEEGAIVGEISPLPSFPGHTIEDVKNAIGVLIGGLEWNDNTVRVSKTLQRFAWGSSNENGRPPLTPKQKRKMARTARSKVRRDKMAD

human eIF4E, sequence (P06730 whole entry): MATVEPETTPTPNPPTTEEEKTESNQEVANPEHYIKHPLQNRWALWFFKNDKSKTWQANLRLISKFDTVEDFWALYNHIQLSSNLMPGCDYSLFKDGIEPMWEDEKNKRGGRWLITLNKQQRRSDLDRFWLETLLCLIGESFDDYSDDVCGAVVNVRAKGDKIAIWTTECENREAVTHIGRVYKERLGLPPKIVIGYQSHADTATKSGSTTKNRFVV

In general, Kd refers to the constant that tells how readily two partners part at equilibrium. A high value points to lower affinity. In the case of “human eIF4E (from UniProt P06730 1-217) (natural protein)”, the Kd is 177 nM. “eIF4G1 (88–653) (from UniProt Q04637 88-653) (domain or fragment)”: the Kd is 264 nM.
